This note sets out measurements from EP2658867B1 (Avidbiotics Corp., dated 2018).

Experiment [1] addresses T1, integrin αVβ3 (UniProt P06756 31-992; P05106 27-718).
T1 construct: Coated on the ELISA plate
Description: ELISA, integrin coated, anti-MICA-HRP.

Experiment [2] deals with T2, integrin αVβ5 (UniProt P06756 31-992; P18084 24-719).
T2 construct: Coated on the ELISA plate
Description: ELISA, integrin coated, anti-MICA-HRP.

For experiment [3], the target named is T1, integrin αVβ3. The experiment in a line: phage ELISA, integrin coated, anti-M13-HRP. (ELISA stands for enzyme-linked immunosorbent assay.)
Experiment [4] deals with T2, integrin αVβ5. The experiment in a line: phage ELISA, integrin coated, anti-M13-HRP.

T1 sequence (P06756 31-992, chain 1 of 2): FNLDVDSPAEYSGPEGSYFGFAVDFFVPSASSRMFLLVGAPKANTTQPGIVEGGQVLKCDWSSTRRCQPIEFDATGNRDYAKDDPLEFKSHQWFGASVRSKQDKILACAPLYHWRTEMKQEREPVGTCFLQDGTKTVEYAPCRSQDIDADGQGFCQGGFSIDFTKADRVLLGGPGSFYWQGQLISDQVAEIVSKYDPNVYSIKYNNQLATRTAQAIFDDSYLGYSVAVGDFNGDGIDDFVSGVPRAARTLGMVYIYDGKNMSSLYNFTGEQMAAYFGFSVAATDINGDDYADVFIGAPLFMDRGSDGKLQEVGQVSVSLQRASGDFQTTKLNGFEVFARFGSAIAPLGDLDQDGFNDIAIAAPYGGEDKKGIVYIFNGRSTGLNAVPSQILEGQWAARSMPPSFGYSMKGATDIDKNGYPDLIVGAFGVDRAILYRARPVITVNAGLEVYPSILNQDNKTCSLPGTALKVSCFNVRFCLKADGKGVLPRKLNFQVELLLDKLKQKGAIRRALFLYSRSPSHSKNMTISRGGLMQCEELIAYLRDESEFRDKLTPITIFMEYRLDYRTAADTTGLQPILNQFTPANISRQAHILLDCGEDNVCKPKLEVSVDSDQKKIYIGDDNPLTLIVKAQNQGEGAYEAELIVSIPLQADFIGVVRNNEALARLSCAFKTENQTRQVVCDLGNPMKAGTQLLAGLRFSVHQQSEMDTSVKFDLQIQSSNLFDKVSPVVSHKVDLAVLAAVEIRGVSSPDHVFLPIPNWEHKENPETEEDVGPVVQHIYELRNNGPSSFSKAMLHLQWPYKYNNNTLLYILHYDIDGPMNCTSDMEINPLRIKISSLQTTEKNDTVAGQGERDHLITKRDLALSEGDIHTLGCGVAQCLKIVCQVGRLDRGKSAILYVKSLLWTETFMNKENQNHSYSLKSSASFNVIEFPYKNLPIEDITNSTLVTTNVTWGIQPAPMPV
T1 sequence (P05106 27-718, chain 2 of 2): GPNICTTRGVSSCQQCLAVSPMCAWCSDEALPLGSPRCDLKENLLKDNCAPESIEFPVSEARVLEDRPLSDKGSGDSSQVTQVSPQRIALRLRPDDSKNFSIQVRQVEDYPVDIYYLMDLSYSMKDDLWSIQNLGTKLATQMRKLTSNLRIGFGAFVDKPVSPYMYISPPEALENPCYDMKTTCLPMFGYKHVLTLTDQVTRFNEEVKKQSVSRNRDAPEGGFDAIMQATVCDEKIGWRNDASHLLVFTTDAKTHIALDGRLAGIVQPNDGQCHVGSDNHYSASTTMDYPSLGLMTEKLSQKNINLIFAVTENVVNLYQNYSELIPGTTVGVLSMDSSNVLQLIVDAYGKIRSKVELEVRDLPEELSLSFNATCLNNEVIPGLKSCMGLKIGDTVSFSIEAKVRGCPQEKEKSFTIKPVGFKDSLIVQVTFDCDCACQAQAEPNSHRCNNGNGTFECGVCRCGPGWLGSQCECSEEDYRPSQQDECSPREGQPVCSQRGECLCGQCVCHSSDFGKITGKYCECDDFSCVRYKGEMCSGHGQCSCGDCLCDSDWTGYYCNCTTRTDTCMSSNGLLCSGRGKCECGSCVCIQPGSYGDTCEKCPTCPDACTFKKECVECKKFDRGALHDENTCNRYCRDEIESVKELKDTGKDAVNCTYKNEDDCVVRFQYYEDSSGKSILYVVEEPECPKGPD
T2 sequence (P06756 31-992, chain 1 of 2): as the sequence (P06756 31-992, chain 1 of 2) above
T2 sequence (P18084 24-719, chain 2 of 2): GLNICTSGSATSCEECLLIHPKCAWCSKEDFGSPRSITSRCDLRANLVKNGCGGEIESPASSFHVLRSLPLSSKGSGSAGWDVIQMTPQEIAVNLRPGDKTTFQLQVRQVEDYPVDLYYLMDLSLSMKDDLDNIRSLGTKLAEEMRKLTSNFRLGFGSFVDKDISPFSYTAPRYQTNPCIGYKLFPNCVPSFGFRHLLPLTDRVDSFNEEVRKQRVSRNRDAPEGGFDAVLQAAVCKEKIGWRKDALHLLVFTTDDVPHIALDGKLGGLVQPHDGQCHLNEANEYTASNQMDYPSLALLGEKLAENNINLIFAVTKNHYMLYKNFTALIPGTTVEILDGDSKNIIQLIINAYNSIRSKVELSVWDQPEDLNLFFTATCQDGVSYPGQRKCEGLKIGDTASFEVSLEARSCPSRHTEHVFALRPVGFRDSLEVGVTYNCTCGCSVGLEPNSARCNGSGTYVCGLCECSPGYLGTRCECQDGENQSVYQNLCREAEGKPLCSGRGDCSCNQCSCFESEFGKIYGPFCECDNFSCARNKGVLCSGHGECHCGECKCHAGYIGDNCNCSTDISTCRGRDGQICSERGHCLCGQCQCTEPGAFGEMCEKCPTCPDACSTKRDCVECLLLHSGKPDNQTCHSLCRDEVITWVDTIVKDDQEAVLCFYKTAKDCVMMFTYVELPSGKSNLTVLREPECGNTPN

B1: soluble MICA generated by pKK49 (extended loop 3.3sp in loop 3) (designed binder)
chain: EPHSLRYNLTVLSWDGSVQSGFLTEVHLDGQPFLRCDRQKCRAKPQGQWAEDVLGNKTWDRETRDLTGNGKDLRMTLAHIKDQKEGLHSLQEIRVCEIHEDNSTRSSQHFYYDGELFLSQNLETKEWTMPQSSRAQTLAMNVRNFLKEDAMKTKTHYHAMHADCLQELRRYLKSGVVLRRTVPPMVNVTRSEASEGNITVTCRASGFYPWNITLSWRQDGVSLSHDTQQWGDVLPDGNGTYQTWVATRISGGSGGGSRVPRGDSDLTSGGSGGGCYMEHSGNHSTHPVPSGK
Consider B1, for which, in the experiment with integrin αVβ3 [1], the signal came out at 0.508 OD and the signal/ng was 5.86 signal/ng. In the experiment with integrin αVβ5 [2], this molecule yielded a signal of 0.478 OD and a signal/ng of 5.51 signal/ng.

B2: soluble MICA generated by pKK50 (extended loop 5.1sp in loop 3) (designed binder)
chain: EPHSLRYNLTVLSWDGSVQSGFLTEVHLDGQPFLRCDRQKCRAKPQGQWAEDVLGNKTWDRETRDLTGNGKDLRMTLAHIKDQKEGLHSLQEIRVCEIHEDNSTRSSQHFYYDGELFLSQNLETKEWTMPQSSRAQTLAMNVRNFLKEDAMKTKTHYHAMHADCLQELRRYLKSGVVLRRTVPPMVNVTRSEASEGNITVTCRASGFYPWNITLSWRQDGVSLSHDTQQWGDVLPDGNGTYQTWVATRISGGSGGGSVTRGDTFTQSSGGSGGGCYMEHSGNHSTHPVPSGK
With B2, the signal in the experiment with integrin αVβ3 [1] was determined as 0.546 OD; with integrin αVβ5 [2], 0.721 OD. The results for the signal/ng with integrin αVβ3 [1] and in the experiment with integrin αVβ5 [2] were 5.85 signal/ng and 7.73 signal/ng, respectively.

B3: soluble MICA generated by pKK51 (extended loop 5.3sp in loop 3) (designed binder)
chain: EPHSLRYNLTVLSWDGSVQSGFLTEVHLDGQPFLRCDRQKCRAKPQGQWAEDVLGNKTWDRETRDLTGNGKDLRMTLAHIKDQKEGLHSLQEIRVCEIHEDNSTRSSQHFYYDGELFLSQNLETKEWTMPQSSRAQTLAMNVRNFLKEDAMKTKTHYHAMHADCLQELRRYLKSGVVLRRTVPPMVNVTRSEASEGNITVTCRASGFYPWNITLSWRQDGVSLSHDTQQWGDVLPDGNGTYQTWVATRISGGSGGGSHLARGDDLTYSGGSGGGCYMEHSGNHSTHPVPSGK
As to B3, in the experiment with integrin αVβ3 [1], the signal was 0.694 OD and the signal/ng was found to be 7.2 signal/ng. In the experiment with integrin αVβ5 [2], the signal was determined as 1.05 OD and the signal/ng was found to be 10.9 signal/ng.

B4: M13 phage pKK136 displaying MICA α3 domain with extended 5.1sp in loop 1 and extended 3.2sp in loop 3 (designed binder, not shown: large carriers)
chain: TVPPMVNVTSGGSGGGSVTRGDTFTQSSGGSGGGVTCRASGFYPWNITLSWRQDGVSLSHDTQQWGDVLPDGNGTYQTWVATRISGGSGGGSTSRGDHPRTQSGGSGGGCYMEHSGNHSTHPVPSGK
As for B4, the values for the signal with integrin αVβ3 [3] and in the experiment with integrin αVβ5 [4] were 2.46 OD and 4.28 OD, respectively.

B5: M13 phage pKK138 displaying MICA α3 domain with extended 5.1sp in loop 1 and extended 5.3sp in loop 3 (designed binder, not shown: large carriers)
chain: TVPPMVNVTSGGSGGGSVTRGDTFTQSSGGSGGGVTCRASGFYPWNITLSWRQDGVSLSHDTQQWGDVLPDGNGTYQTWVATRISGGSGGGSHLARGDDLTYSGGSGGGCYMEHSGNHSTHPVPSGK
For the molecule B5, the signal was found to be 0.886 OD with integrin αVβ3 [3] and 2.75 OD with integrin αVβ5 [4].

B6: soluble MICA generated by pKK36 (loop 3.1 in loop 1) (designed binder)
chain: HHHHHHEPHSLRYNLTVLSWDGSVQSGFLTEVHLDGQPFLRCDRQKCRAKPQGQWAEDVLGNKTWDRETRDLTGNGKDLRMTLAHIKDQKEGLHSLQEIRVCEIHEDNSTRSSQHFYYDGELFLSQNLETEEWTMPQSSRAQTLAMNVRNFLKEDAMKTKTHYHAMHADCLQELRRYLKSGVVLRRTVPPMVNVTSRGDHPRTQVTCRASGFYPWNITLSWRQDGVSLSHDTQQWGDVLPDGNGTYQTWVATRICQGEEQRFTCYMEHSGNHSTHPVPSGK
In the experiment with integrin αVβ3 [1], B6 showed a signal of 0.55 OD and a signal/ng of 19 signal/ng. In the experiment with integrin αVβ5 [2], this molecule registered a signal of 0.526 OD and a signal/ng of 18.1 signal/ng.

B7: M13 phage pKK107 displaying MICA α3 domain with tight T-3.1 in loop 1 (designed binder, not shown: large carriers)
chain: TVPPMVNTSRGDHPRTQCRASGFYPWNITLSWRQDGVSLSHDTQQWGDVLPDGNGTYQTWVATRICQGEEQRFTCYMEHSGNHSTHPVPSGK
Take B7: the signal with integrin αVβ3 [3] was determined as 0.999 OD; in the experiment with integrin αVβ5 [4], 1.49 OD.

B8: M13 phage pKK109 displaying MICA α3 domain with tight T-3.3 in loop 1 (designed binder, not shown: large carriers)
chain: TVPPMVNRVPRGDSDLTCRASGFYPWNITLSWRQDGVSLSHDTQQWGDVLPDGNGTYQTWVATRICQGEEQRFTCYMEHSGNHSTHPVPSGK
For B8, the signal in the experiment with integrin αVβ3 [3] worked out at 0.23 OD; with integrin αVβ5 [4], 0.167 OD.

B9: M13 phage pKK111 displaying MICA α3 domain with tight T-5.3 in loop 1 (designed binder, not shown: large carriers)
chain: TVPPMVNHLARGDDLTYCRASGFYPWNITLSWRQDGVSLSHDTQQWGDVLPDGNGTYQTWVATRICQGEEQRFTCYMEHSGNHSTHPVPSGK
With B9, the signal with integrin αVβ3 [3] stood at 0.707 OD; in the experiment with integrin αVβ5 [4] it was 0.657 OD.

B10: M13 phage pKK110 displaying MICA α3 domain with tight T-5.1 in loop 1 (designed binder, not shown: large carriers)
chain: TVPPMVNVTRGDTFTQSCRASGFYPWNITLSWRQDGVSLSHDTQQWGDVLPDGNGTYQTWVATRICQGEEQRFTCYMEHSGNHSTHPVPSGK
On to B10, for which the signal in the experiment with integrin αVβ3 [3] was 1.49 OD; with integrin αVβ5 [4] it was 2.56 OD.

B11: M13 phage pKK94 displaying MICA α3 domain with loop 3.3 in loop 1 (designed binder, not shown: large carriers)
chain: TVPPMVNVTRVPRGDSDLTVTCRASGFYPWNITLSWRQDGVSLSHDTQQWGDVLPDGNGTYQTWVATRICQGEEQRFTCYMEHSGNHSTHPVPSGK
Consider B11, for which the values for the signal with integrin αVβ3 [3] and with integrin αVβ5 [4] were 1.07 OD and 2.84 OD, respectively.

B12: M13 phage pKK98 displaying MICA α3 domain with loop 5.3 in loop 1 (designed binder, not shown: large carriers)
chain: TVPPMVNVTHLARGDDLTYVTCRASGFYPWNITLSWRQDGVSLSHDTQQWGDVLPDGNGTYQTWVATRICQGEEQRFTCYMEHSGNHSTHPVPSGK
For the molecule B12, the results for the signal in the experiment with integrin αVβ3 [3] and with integrin αVβ5 [4] were 1.22 OD and 1.48 OD, respectively.

B13: M13 phage pKK95 displaying MICA α3 domain with loop 3.4 in loop 1 (designed binder, not shown: large carriers)
chain: TVPPMVNVTRSARGDSDHRVTCRASGFYPWNITLSWRQDGVSLSHDTQQWGDVLPDGNGTYQTWVATRICQGEEQRFTCYMEHSGNHSTHPVPSGK
For the molecule B13, the signal in the experiment with integrin αVβ3 [3] was 0.345 OD; with integrin αVβ5 [4], 0.232 OD.

B14: M13 phage pKK96 displaying MICA α3 domain with loop 5.1 in loop 1 (designed binder, not shown: large carriers)
chain: TVPPMVNVTVTRGDTFTQSVTCRASGFYPWNITLSWRQDGVSLSHDTQQWGDVLPDGNGTYQTWVATRICQGEEQRFTCYMEHSGNHSTHPVPSGK
B14: the signal came to 1.64 OD with integrin αVβ3 [3] and 2.42 OD in the experiment with integrin αVβ5 [4].

B15: M13 phage pKK92 displaying MICA α3 domain with loop 3.1 in loop 1 (designed binder, not shown: large carriers)
chain: TVPPMVNVTSRGDHPRTQVTCRASGFYPWNITLSWRQDGVSLSHDTQQWGDVLPDGNGTYQTWVATRICQGEEQRFTCYMEHSGNHSTHPVPSGK
As for B15, the signal with integrin αVβ3 [3] was 0.858 OD; with integrin αVβ5 [4], 1.32 OD.

B16: M13 phage pKK112 displaying MICA α3 domain with tight T-AMY (loop 1 from tendamistat) in loop 1 (designed binder, not shown: large carriers)
chain: TVPPMVNYQSWRYSQCRASGFYPWNITLSWRQDGVSLSHDTQQWGDVLPDGNGTYQTWVATRICQGEEQRFTCYMEHSGNHSTHPVPSGK
For B16, the signal is 0.46 OD with integrin αVβ3 [3] and 0.515 OD with integrin αVβ5 [4].

B17: M13 phage pKK93 displaying MICA α3 domain with loop 3.2 in loop 1 (designed binder, not shown: large carriers)
chain: TVPPMVNVTRTSRGDHPRTQVTCRASGFYPWNITLSWRQDGVSLSHDTQQWGDVLPDGNGTYQTWVATRICQGEEQRFTCYMEHSGNHSTHPVPSGK
For B17, the signal stood at 0.284 OD with integrin αVβ3 [3], 0.616 OD in the experiment with integrin αVβ3 [3] (record 2), 0.291 OD in the experiment with integrin αVβ5 [4] and 0.774 OD with integrin αVβ5 [4] (record 2).

B18: M13 phage pKK91 displaying MICA α3 domain with His10sp in loop 3 (designed binder, not shown: large carriers)
chain: TVPPMVNVTRSEASEGNITVTCRASGFYPWNITLSWRQDGVSLSHDTQQWGDVLPDGNGTYQTWVATRISGGSGGGSHHHHHHHHHHSGGSGGGCYMEHSGNHSTHPVPSGK
For B18, the signal came to 0.303 OD with integrin αVβ3 [3] and 0.078 OD in the experiment with integrin αVβ5 [4].

B19: M13 phage pKK104 displaying MICA α3 domain with extended loop 3.2sp in loop 3 (designed binder, not shown: large carriers)
chain: TVPPMVNVTRSEASEGNITVTCRASGFYPWNITLSWRQDGVSLSHDTQQWGDVLPDGNGTYQTWVATRISGGSGGGSTSRGDHPRTQSGGSGGGCYMEHSGNHSTHPVPSGK
As to B19, the figures for the signal with integrin αVβ3 [3] and with integrin αVβ5 [4] were 0.791 OD and 1.12 OD, respectively.

B20: M13 phage pKK105 displaying MICA α3 domain with extended loop 3.3sp in loop 3 (designed binder, not shown: large carriers)
chain: TVPPMVNVTRSEASEGNITVTCRASGFYPWNITLSWRQDGVSLSHDTQQWGDVLPDGNGTYQTWVATRISGGSGGGSRVPRGDSDLTSGGSGGGCYMEHSGNHSTHPVPSGK
For B20, the signal with integrin αVβ3 [3] turned out to be 1.33 OD; with integrin αVβ5 [4] it was 1.11 OD.

B21: M13 phage pKK97 displaying MICA α3 domain with loop 5.2 in loop 1 (designed binder, not shown: large carriers)
chain: TVPPMVNVTRGDTFTQSVTCRASGFYPWNITLSWRQDGVSLSHDTQQWGDVLPDGNGTYQTWVATRICQGEEQRFTCYMEHSGNHSTHPVPSGK
Turning to B21, the figures for the signal in the experiment with integrin αVβ3 [3] and in the experiment with integrin αVβ5 [4] were 1.55 OD and 2.59 OD, respectively.

B22: M13 phage pKK100 displaying MICA α3 domain with extended loop 3.2sp in loop 1 (designed binder, not shown: large carriers)
chain: TVPPMVNVTSGGSGGGSTSRGDHPRTQSGGSGGGVTCRASGFYPWNITLSWRQDGVSLSHDTQQWGDVLPDGNGTYQTWVATRICQGEEQRFTCYMEHSGNHSTHPVPSGK
As to B22, the values for the signal with integrin αVβ3 [3] and with integrin αVβ5 [4] were 0.201 OD and 0.186 OD, respectively.

B23: M13 phage pKK103 displaying MICA α3 domain with extended loop 5.3sp in loop 1 (designed binder, not shown: large carriers)
chain: TVPPMVNVTSGGSGGGSHLARGDDLTYSGGSGGGVTCRASGFYPWNITLSWRQDGVSLSHDTQQWGDVLPDGNGTYQTWVATRICQGEEQRFTCYMEHSGNHSTHPVPSGK
As to B23, the signal with integrin αVβ3 [3] is 0.688 OD; with integrin αVβ3 [3] (record 2), 0.587 OD; in the experiment with integrin αVβ5 [4] it was 0.491 OD; with integrin αVβ5 [4] (record 2), 0.814 OD.

B24: M13 phage pKK101 displaying MICA α3 domain with extended loop 3.3sp in loop 1 (designed binder, not shown: large carriers)
chain: TVPPMVNVTSGGSGGGSRVPRGDSDLTSGGSGGGVTCRASGFYPWNITLSWRQDGVSLSHDTQQWGDVLPDGNGTYQTWVATRICQGEEQRFTCYMEHSGNHSTHPVPSGK
For B24, the signal with integrin αVβ3 [3] was found to be 1.49 OD; in the experiment with integrin αVβ5 [4] it was 1.23 OD.

B25: M13 phage pKK102 displaying MICA α3 domain with extended loop 5.1sp in loop 1 (designed binder, not shown: large carriers)
chain: TVPPMVNVTSGGSGGGSVTRGDTFTQSSGGSGGGVTCRASGFYPWNITLSWRQDGVSLSHDTQQWGDVLPDGNGTYQTWVATRICQGEEQRFTCYMEHSGNHSTHPVPSGK
As for B25, the signal with integrin αVβ3 [3] was determined as 1.02 OD; with integrin αVβ3 [3] (record 2), 1.45 OD; with integrin αVβ5 [4], 0.771 OD; in the experiment with integrin αVβ5 [4] (record 2), 1.5 OD.
